B1: Far upstream element-binding protein 1, residues 98 to 169; numbered along this chain, Q96AE4 (parent)
chain: RSVMTEEYKVPDGMVGFIIGRGGEQISRIQQESGCKIQIAPDSGGLPERSCMLTGTPESVQSAKRLLDQIVE

± gives the uncertainty stated by the source.

This data set covers variants of B1. Put plainly: abundance fitness (aPCA) (normalised: wild type 0, dead -1); higher = more abundant; growth selection in yeast, the domain comes from the species named. The settings on record: Homo sapiens.
Take RSVMTEEYKVPDGMVGFIIGRGGEQISRIQQESGCKIQIAPDSGGLPERSCMVTGTPESVQSAKRLLDQIVE [L53V]: the abundance fitness was -0.132 ± 0.028.
As to RSVMTEEYKVPDGMVGFIIGRGGEQISRIQQESGCKIQIAPDSGGLPERSCMQTGTPESVQSAKRLLDQIVE [L53Q], the abundance fitness is -1.1 ± 0.091.
The value for RSVMTEEYKVPDGMVGFIIGRGGEQISRIQQESGCKIQIAPDSGGLPERSCMTTGTPESVQSAKRLLDQIVE [L53T] was -0.923 ± 0.063; that for RSVMTEEYKVPDGMVGFIIGRGGEQISRIQQESGCKIQIAPDSGGLPERSCMKTGTPESVQSAKRLLDQIVE [L53K] was -0.835 ± 0.063.
Turning to RSVMTEEYKVPDGMVGFIIGRGGEQISRIQQESGCKIQIAPDSGGLPERSCMGTGTPESVQSAKRLLDQIVE [L53G], the abundance fitness was -1.1 ± 0.041.
Regarding RSVMTEEYKVPDGMVGFIIGRGGEQISRIQQESGCKIQIAPDSGGLPERSCMMTGTPESVQSAKRLLDQIVE [L53M], the abundance fitness is -0.095 ± 0.035.
For RSVMTEEYKVPDGMVGFIIGRGGEQISRIQQESGCKIQIAPDSGGLPERSCMSTGTPESVQSAKRLLDQIVE [L53S], the abundance fitness was -0.899 ± 0.047.
For RSVMTEEYKVPDGMVGFIIGRGGEQISRIQQESGCKIQIAPDSGGLPERSCMWTGTPESVQSAKRLLDQIVE [L53W], the abundance fitness is -1.03 ± 0.054.
Consider RSVMTEEYKVPDGMVGFIIGRGGEQISRIQQESGCKIQIAPDSGGLPERSCMNTGTPESVQSAKRLLDQIVE [L53N], for which the abundance fitness is -1.05 ± 0.11.
As to RSVMTEEYKVPDGMVGFIIGRGGEQISRIQQESGCKIQIAPDSGGLPERSCMRTGTPESVQSAKRLLDQIVE [L53R], the abundance fitness is -1.05 ± 0.043.
The value for RSVMTEEYKVPDGMVGFIIGRGGEQISRIQQESGCKIQIAPDSGGLPERSCMITGTPESVQSAKRLLDQIVE [L53I] was 0.048 ± 0.053.
Take RSVMTEEYKVPDGMVGFIIGRGGEQISRIQQESGCKIQIAPDSGGLPERSCMFTGTPESVQSAKRLLDQIVE [L53F]: the abundance fitness is -0.349 ± 0.05.
The value for RSVMTEEYKVPDGMVGFIIGRGGEQISRIQQESGCKIQIAPDSGGLPERSCMLTGTCESVQSAKRLLDQIVE [P57C] was -0.111 ± 0.049; that for RSVMTEEYKVPDGMVGFIIGRGGEQISRIQQESGCKIQIAPDSGGLPERSCMLTGTKESVQSAKRLLDQIVE [P57K] was -0.044 ± 0.04.
On to RSVMTEEYKVPDGMVGFIIGRGGEQISRIQQESGCKIQIAPDSGGLPERSCMLTGTAESVQSAKRLLDQIVE [P57A], for which the abundance fitness is -0.017 ± 0.028.
For the variant RSVMTEEYKVPDGMVGFIIGRGGEQISRIQQESGCKIQIAPDSGGLPERSCMLTGTEESVQSAKRLLDQIVE [P57E], the abundance fitness was -0.008 ± 0.031.
Regarding RSVMTEEYKVPDGMVGFIIGRGGEQISRIQQESGCKIQIAPDSGGLPERSCMLTGTFESVQSAKRLLDQIVE [P57F], the abundance fitness came to 0.057 ± 0.051.
For the variant RSVMTEEYKVPDGMVGFIIGRGGEQISRIQQESGCKIQIAPDSGGLPERSCMLTGTGESVQSAKRLLDQIVE [P57G], the abundance fitness is -0.025 ± 0.026.
RSVMTEEYKVPDGMVGFIIGRGGEQISRIQQESGCKIQIAPDSGGLPERSCMLTGTDESVQSAKRLLDQIVE [P57D]: the abundance fitness is -0.097 ± 0.044.
In the case of RSVMTEEYKVPDGMVGFIIGRGGEQISRIQQESGCKIQIAPDSGGLPERSCMLTGTIESVQSAKRLLDQIVE [P57I], the abundance fitness was -0.088 ± 0.05.
Take RSVMTEEYKVPDGMVGFIIGRGGEQISRIQQESGCKIQIAPDSGGLPERSCMLTGTHESVQSAKRLLDQIVE [P57H]: the abundance fitness was -0.12 ± 0.058.
Regarding RSVMTEEYKVPDGMVGFIIGRGGEQISRIQQESGCKIQIAPDSGGLPERSCMLTGTQESVQSAKRLLDQIVE [P57Q], the abundance fitness stood at 0.033 ± 0.034.
Consider RSVMTEEYKVPDGMVGFIIGRGGEQISRIQQESGCKIQIAPDSGGLPERSCMLTGTLESVQSAKRLLDQIVE [P57L], for which the abundance fitness was -0.048 ± 0.029.
The same measure for RSVMTEEYKVPDGMVGFIIGRGGEQISRIQQESGCKIQIAPDSGGLPERSCMLTGTNESVQSAKRLLDQIVE [P57N]: 0.001 ± 0.063; for RSVMTEEYKVPDGMVGFIIGRGGEQISRIQQESGCKIQIAPDSGGLPERSCMLTPTPESVQSAKRLLDQIVE [G55P]: -1.13 ± 0.082.
In the case of RSVMTEEYKVPDGMVGFIIGRGGEQISRIQQESGCKIQIAPDSGGLPERSCMLTKTPESVQSAKRLLDQIVE [G55K], the abundance fitness was -1.05 ± 0.087.
On to RSVMTEEYKVPDGMVGFIIGRGGEQISRIQQESGCKIQIAPDSGGLPERSCMLTLTPESVQSAKRLLDQIVE [G55L], for which the abundance fitness was -1.51 ± 0.12.
With RSVMTEEYKVPDGMVGFIIGRGGEQISRIQQESGCKIQIAPDSGGLPERSCMLTITPESVQSAKRLLDQIVE [G55I], the abundance fitness was -1.12 ± 0.14.
As to RSVMTEEYKVPDGMVGFIIGRGGEQISRIQQESGCKIQIAPDSGGLPERSCMLTATPESVQSAKRLLDQIVE [G55A], the abundance fitness was -0.534 ± 0.034.
Turning to RSVMTEEYKVPDGMVGFIIGRGGEQISRIQQESGCKIQIAPDSGGLPERSCMLTVTPESVQSAKRLLDQIVE [G55V], the abundance fitness is -1.31 ± 0.077.
RSVMTEEYKVPDGMVGFIIGRGGEQISRIQQESGCKIQIAPDSGGLPERSCMLTDTPESVQSAKRLLDQIVE [G55D]: the abundance fitness is -0.936 ± 0.074.
For RSVMTEEYKVPDGMVGFIIGRGGEQISRIQQESGCKIQIAPDSGGLPERSCMLTTTPESVQSAKRLLDQIVE [G55T], the abundance fitness is -1.32 ± 0.12.
As for RSVMTEEYKVPDGMVGFIIGRGGEQISRIQQESGCKIQIAPDSGGLPERSCMLTHTPESVQSAKRLLDQIVE [G55H], the abundance fitness was -0.721 ± 0.13.
Consider RSVMTEEYKVPDGMVGFIIGRGGEQISRIQQESGCKIQIAPDSGGLPERSCMLTFTPESVQSAKRLLDQIVE [G55F], for which the abundance fitness is -1.41 ± 0.21.
RSVMTEEYKVPDGMVGFIIGRGGEQISRIQQESGCKIQIAPDSGGLPERSCMLTSTPESVQSAKRLLDQIVE [G55S]: the abundance fitness was -0.44 ± 0.037.
Take RSVMTEEYKVPDGMVGFIIGRGGEQISRIQQESGCKIQIAPDSGGLPERSCMLTNTPESVQSAKRLLDQIVE [G55N]: the abundance fitness is -1.1 ± 0.16.
Turning to RSVMTEEYKVPDGMVGFIIGRGGEQISRIQQESGCKIQIAPDSGGLPERSCMLTCTPESVQSAKRLLDQIVE [G55C], the abundance fitness is -1.24 ± 0.15.
The same measure for RSVMTEEYKVPDGMVGFIIGRGGEQISRIQQESGCKIQIAPDSGGLPERSCMLTETPESVQSAKRLLDQIVE [G55E]: -1.12 ± 0.069.

These data come from the Human Domainome abundance scans (Beltran et al. 2025).
